Experimental data: article doi:10.1101/2022.05.05.490830
Where two headings read alike, the source gives them in different places.

Assays:
Assay in all cases: BLI
hPolεCD (E. coli) [1] = biological target: T1, hPolεCD (E. coli) (Homo sapiens, UniProt Q07864 28-1194)
hPolεCD (insect) = hPolεCD (insect) (Homo sapiens, UniProt Q07864 28-1194)
hPolεCD (E. coli) [2] = biological target: T1, hPolεCD (E. coli); remark: listed apart in the source

T1 sequence (Q07864 28-1194): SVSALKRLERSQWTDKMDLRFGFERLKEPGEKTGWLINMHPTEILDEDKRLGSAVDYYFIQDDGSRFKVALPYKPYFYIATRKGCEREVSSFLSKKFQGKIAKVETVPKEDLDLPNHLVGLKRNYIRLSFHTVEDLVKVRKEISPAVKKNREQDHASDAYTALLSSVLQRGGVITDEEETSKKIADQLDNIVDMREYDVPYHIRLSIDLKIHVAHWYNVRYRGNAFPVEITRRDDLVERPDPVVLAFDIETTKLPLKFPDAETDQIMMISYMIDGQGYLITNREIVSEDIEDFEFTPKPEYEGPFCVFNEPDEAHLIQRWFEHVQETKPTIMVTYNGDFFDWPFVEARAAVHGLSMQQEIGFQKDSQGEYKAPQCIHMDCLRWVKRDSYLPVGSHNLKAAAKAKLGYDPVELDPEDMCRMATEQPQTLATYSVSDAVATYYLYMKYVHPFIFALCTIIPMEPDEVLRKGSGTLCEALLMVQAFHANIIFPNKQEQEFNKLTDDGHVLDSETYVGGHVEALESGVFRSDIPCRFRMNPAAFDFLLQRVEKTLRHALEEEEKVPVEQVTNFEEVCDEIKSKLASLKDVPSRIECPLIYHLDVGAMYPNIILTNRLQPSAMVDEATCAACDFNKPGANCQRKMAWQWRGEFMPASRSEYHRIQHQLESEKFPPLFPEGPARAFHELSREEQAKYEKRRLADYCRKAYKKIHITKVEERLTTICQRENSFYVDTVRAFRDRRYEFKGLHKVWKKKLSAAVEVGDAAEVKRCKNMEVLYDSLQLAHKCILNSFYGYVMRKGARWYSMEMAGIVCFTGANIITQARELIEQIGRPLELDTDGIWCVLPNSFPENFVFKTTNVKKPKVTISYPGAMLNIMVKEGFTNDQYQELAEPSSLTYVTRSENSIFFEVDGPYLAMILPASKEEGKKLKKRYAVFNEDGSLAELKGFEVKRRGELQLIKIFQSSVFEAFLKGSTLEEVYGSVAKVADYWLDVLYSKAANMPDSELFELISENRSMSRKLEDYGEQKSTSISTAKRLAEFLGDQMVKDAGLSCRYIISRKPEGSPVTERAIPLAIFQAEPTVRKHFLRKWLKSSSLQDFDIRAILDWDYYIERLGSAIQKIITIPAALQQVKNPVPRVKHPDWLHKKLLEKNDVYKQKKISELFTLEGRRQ
hPolεCD (insect), sequence (Q07864 28-1194): as above

B1: Octet template:primer 23/11 (dsDNA)
DNA 1: AATACATAAGCGCTCCAGGCAAT
DNA 2: GCCTGGAGCGC
modifications: 3' dideoxycytidine on primer
- Kd (hPolεCD (E. coli) [1]): 167 ± 24 nM
- Kd (hPolεCD (insect)): 213 ± 43 nM
- Kd (hPolεCD (E. coli) [2]): 3260 ± 386 nM
